Test results: patent publication US20210171647A1 (WUXI BIOLOGICS SHANGHAI, published 2021)

Tests used:
[1] = target: T1, human OX40, full-length, on cells (human, UniProt P43489 29-277); test: flow cytometry on activated human CD4+ T cells
T1 construct: whole, on cells; also called hPro1; cell surface human OX40
T1 sequence (looked up): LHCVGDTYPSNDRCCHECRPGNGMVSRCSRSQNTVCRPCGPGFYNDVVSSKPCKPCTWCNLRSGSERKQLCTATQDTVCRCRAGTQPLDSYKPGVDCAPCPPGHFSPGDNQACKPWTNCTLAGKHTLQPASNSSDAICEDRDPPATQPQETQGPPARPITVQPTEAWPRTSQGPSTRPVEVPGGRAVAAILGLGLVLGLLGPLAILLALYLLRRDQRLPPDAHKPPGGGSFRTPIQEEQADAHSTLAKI
Protocol: Briefly, human OX40-expressing CHO-K1 cells or activated human CD4⁺ T cells were transferred into 96-well U-bottom plates (Corning) at a density of 1×10⁵ cells/well. Testing antibodies were serially diluted in wash buffer (1×PBS/1% BSA) and incubated with cells at 4° C. for 1 h. After washing with 1×PBS/1% BSA, the secondary antibody goat anti-human IgG Fc-PE (Jackson ImmunoResearch Lab) was applied and incubated with cells at 4° C. in the dark for 1 h. The cells were then washed and resuspended in 1×PBS/1% BSA or fixed with 4% paraformaldehyde, and then analyzed by flow cytometry (BD).

[2] = target: T2, human OX40-ECD.His M52A (human, UniProt P43489 29-214); test: ELISA, antibody coated, OX40-ECD.His mutant supernatant; relative to silent alanine substitutions;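 further: captured OX40 mutant protein detected with HRP-labelled anti-His antibody, absorbance read-out, scaled to the mean signal of control mutants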
T2 construct: extracellular domain; not shown: C-terminal His-tag
T2 sequence (looked up): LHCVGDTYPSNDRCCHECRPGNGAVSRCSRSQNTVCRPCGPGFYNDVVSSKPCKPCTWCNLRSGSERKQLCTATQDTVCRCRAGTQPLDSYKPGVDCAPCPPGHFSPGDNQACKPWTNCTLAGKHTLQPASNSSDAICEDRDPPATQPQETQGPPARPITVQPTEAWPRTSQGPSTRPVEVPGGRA

[3] = target: T3, human OX40-ECD.His H30A (human, UniProt P43489 29-214); test: as above
T3 construct: extracellular domain; not shown: C-terminal His-tag
T3 sequence (looked up): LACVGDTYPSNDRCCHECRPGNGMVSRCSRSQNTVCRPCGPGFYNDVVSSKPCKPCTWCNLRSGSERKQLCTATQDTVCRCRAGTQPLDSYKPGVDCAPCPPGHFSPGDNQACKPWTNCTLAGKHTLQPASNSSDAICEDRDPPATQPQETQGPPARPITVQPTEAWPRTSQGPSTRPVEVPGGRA

[4] = target: T4, human OX40-ECD.His N146A (human, UniProt P43489 29-214); test: as above
T4 construct: extracellular domain; not shown: C-terminal His-tag
T4 sequence (looked up): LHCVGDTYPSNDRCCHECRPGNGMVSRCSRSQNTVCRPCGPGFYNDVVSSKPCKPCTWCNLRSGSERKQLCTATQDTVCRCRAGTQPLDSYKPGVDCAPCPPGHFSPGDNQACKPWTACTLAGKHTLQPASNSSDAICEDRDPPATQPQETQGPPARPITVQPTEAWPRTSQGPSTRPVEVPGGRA

[5] = target: T5, human OX40-ECD.His V53A (human, UniProt P43489 29-214); test: as above
T5 construct: extracellular domain; not shown: C-terminal His-tag
T5 sequence (looked up): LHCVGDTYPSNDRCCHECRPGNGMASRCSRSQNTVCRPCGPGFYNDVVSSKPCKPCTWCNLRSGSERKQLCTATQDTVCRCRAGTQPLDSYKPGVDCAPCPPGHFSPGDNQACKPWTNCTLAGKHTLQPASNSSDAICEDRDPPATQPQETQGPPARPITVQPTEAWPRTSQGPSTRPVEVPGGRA

[6] = target: T6, human OX40-ECD.His S161A (human, UniProt P43489 29-214); test: as above
T6 construct: extracellular domain; not shown: C-terminal His-tag
T6 sequence (looked up): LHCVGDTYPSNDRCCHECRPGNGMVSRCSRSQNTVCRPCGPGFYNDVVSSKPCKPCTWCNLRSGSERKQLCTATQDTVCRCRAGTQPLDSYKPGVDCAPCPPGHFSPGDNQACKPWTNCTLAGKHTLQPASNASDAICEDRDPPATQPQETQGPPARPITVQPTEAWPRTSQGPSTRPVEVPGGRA

B1: 1.134.9-u1-IgG1L (antibody, V domains shown)
VH: QVQLQESGPGLVKPSGTLSLTCAVSGGSISSYNWWSWVRQPPGKGLEWIGEIYHGGNTNYNPSLKSRVTMSVDNSKNQFSLKLSSVTAADTAVYYCARAPGDWGGSPYFDFWGQGTLVTVSS
VL: SSELTQDPAVSVALGQTVRITCQGDNLRTYYASWYQQKPGQAPILLIYGRNKRPSGIPDRFSGSSSGNTASLTITGAQAEDEAAYYCNSRDSSGNPVVFGGGTKLTVL
notes: fully human IgG1, lambda
EC50 (read off the curve) [1]: 1 to 2 nM | Fold Change [2]: 0.977 | Fold Change [3]: 1.01 | Fold Change [4]: 0.73 | Fold Change [5]: 0.896 | Fold Change [6]: 0.945
